The values below come from patent US20200140815A1 (CRISPR THERAPEUTICS, published 2020).

The target in test [1] is T1, murine PTK7 (murine, UniProt Q8BKG3 23-1062).
T1 construct: whole, on cells; also called mouse antigen; PTK7 on murine 3T3L1 and M158 cells
T1 sequence (looked up): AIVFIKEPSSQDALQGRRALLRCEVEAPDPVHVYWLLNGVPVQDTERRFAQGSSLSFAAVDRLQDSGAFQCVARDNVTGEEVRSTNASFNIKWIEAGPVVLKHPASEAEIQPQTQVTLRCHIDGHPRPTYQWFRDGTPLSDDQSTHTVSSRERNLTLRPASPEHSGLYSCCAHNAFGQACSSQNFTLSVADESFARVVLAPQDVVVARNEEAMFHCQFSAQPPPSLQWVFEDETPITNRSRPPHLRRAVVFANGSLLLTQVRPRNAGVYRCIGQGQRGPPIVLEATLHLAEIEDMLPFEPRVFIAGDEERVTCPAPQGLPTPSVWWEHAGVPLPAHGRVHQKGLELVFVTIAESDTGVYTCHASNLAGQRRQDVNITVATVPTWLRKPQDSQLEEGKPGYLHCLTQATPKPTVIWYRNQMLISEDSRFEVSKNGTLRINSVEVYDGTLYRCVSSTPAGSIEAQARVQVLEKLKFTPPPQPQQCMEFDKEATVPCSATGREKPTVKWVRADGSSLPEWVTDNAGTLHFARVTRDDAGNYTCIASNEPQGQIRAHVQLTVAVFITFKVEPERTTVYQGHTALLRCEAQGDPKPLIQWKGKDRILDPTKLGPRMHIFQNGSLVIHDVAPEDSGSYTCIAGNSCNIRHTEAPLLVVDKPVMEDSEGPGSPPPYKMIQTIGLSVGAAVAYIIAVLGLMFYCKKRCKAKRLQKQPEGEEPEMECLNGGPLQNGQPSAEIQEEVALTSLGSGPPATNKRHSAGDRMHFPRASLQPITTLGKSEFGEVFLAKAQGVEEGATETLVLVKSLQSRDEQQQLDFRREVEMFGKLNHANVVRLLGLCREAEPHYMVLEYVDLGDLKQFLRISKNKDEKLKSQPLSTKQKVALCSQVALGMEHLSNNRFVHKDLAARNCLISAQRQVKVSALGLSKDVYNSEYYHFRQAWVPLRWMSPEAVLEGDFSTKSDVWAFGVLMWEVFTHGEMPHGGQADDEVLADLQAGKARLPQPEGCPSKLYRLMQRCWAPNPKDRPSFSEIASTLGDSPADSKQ
The experiment in a line: flow cytometry dose titration (200 nM-0.0032 nM) on murine 3T3L1 and M158 cells; secondary APC-conjugated human IgG-Fc antibody. Here is the method:
(§1) To evaluate the species cross reactivity of the custom CTX181 antibody, its binding affinity was assessed in murine 3T3L1 fibroblast and murine M158 breast cancer cell lines and compared to its binding affinity in human Saos2 (osteosarcoma), A498 (renal carcinoma) and HCC70 (breast cancer) cell lines. For each cell line, a dose titration binding assay (200 nM-0.0032 nM final CTX181 antibody) was run on 2×10⁶ cells at each concentration. Cells were stained 30 min on ice with CTX181 antibody, followed by washing and 15 min stain at RT with secondary APC fluorophore conjugated human IgG-Fc antibody. Cells were assessed for staining on a Novocyte flow cytometer (Acea Biosciences).
For orientation: In flow cytometry, cells or beads pass a laser one at a time.

The target of test [2] is T2, human protein tyrosine kinase 7 (PTK7) (human, UniProt Q13308 31-1070).
T2 construct: whole, on cells; also called humPTK7; colon carcinoma kinase 4 (CCK4)
T2 sequence (looked up): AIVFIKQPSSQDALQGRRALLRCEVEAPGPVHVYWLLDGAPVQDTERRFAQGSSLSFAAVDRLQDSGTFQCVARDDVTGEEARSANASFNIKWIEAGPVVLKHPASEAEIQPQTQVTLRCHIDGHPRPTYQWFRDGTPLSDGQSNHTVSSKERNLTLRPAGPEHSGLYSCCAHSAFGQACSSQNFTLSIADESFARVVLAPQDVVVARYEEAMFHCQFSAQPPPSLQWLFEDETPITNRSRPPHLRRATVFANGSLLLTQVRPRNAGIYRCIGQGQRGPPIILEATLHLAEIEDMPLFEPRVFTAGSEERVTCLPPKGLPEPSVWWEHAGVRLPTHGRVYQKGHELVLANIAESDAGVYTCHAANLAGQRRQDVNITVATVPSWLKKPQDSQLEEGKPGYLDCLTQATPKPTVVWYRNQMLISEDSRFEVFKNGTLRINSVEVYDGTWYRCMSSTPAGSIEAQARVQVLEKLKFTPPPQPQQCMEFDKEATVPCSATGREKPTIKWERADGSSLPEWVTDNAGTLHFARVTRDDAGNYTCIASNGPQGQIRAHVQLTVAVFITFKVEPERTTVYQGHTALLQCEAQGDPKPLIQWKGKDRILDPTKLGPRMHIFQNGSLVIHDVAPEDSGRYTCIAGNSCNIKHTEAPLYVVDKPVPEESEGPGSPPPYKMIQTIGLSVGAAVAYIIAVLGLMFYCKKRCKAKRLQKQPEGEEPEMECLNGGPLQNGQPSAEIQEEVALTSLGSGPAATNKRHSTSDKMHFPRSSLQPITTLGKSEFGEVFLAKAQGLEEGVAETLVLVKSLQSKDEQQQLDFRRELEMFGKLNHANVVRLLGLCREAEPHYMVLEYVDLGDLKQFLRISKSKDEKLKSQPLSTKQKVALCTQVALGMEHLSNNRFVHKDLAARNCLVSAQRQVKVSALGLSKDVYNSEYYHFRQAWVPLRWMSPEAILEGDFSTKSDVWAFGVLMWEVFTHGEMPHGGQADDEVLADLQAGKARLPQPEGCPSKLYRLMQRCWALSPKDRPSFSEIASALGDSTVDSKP
Nature of the test: flow cytometry dose titration (200 nM-0.0032 nM) on human Saos2, A498 and HCC70 cells; secondary APC-conjugated human IgG-Fc antibody. Here is the method:
as §1

B1: CTX181 mAb (custom recombinant monoclonal anti-PTK7 antibody, Creative Biolabs) (antibody, human IgG1, kappa, V domains shown)
VH: QVQLVESGGGVVQPGRSLRLSCAASGFTFSSYGMHWVRQAPGKGLEWVAVIWDDGSNKYYVDSVKGRFTISRDNSKNTLYLQMNSLRAEDTAVYYCARDDYYGSGSFNSYYGTDVWGQGTTVTVSS
VL: EIVLTQSPATLSLSPGERATLSCRASQSVSIYLAWYQQKPGQAPRLLIYDASNRATGIPARFSGSGSGTDFTLTISSLEPEDFAVYYCQQRSNWPPFTFGPGTKVDIKR
notes: Used biotinylated for immunohistochemistry; In flow cytometry it was detected with a secondary APC-conjugated human IgG-Fc antibody; also called CTX181 antibody; CTX181 Ab
Regarding B1, the binding result in test [1] and in test [2] was “binds” in each case.
